Assay results from PMC11775523.

Tested on: Exo1 (exonuclease)
Assay: ITC
Conditions: ITC: 67 mM glycine-KOH, 6.7 mM MgCl2, 1 mM TCEP, 37 C (Methods: 100 uM aptamer into 10 uM Exo1; Results text: 10 uM into 1 uM). Cells: Dulbecco's PBS, 5 mM …

Row | Sequence | Kd (5'-terminal GalNAc-modified base (N1, printed X), position 12 is also printed X, but the text describes only 5' modification, so likely a misprint for T) [µM] | Kd [µM]
1 | NATCTAACTGCNGCGCCGCCGGGAAAATACTGTACGGTTAGAT [GS01 (5' GalN-Sgc8)] | 662 | 
2 | ATCTAACTGCTGCGCCGCCGGGAAAATACTGTACGGTTAGA [Sgc8 (S01)] |  | 0.001
